Data published in paper PMC3376194.

Substrate: CCCCC/C=C\C/C=C\C/C=C\C/C=C\CCCC(=O)O
Experiment: cells, lysate or membranes named
Details: other: R53H, 0.025% Tween 20, 37 °C

B1: PGHS-1 R53H variant (Homo sapiens; R53H) (protein)
chain: ADPGAPTPVNPCCYYPCQHQGICVRFGLDHYQCDCTRTGYSGPNCTIPGLWTWLRNSLRPSPSFTHFLLTHGRWFWEFVNATFIREMLMRLVLTVRSNLIPSPPTYNSAHDYISWESFSNVSYYTRILPSVPKDCPTPMGTKGKKQLPDAQLLARRFLLRRKFIPDPQGTNLMFAFFAQHFTHQFFKTSGKMGPGFTKALGHGVDLGHIYGDNLERQYQLRLFKDGKLKYQVLDGEMYPPSVEEAPVLMHYPRGIPPQSQMAVGQEVFGLLPGLMLYATLWLREHNRVCDLLKAEHPTWGDEQLFQTTRLILIGETIKIVIEEYVQQLSGYFLQLKFDPELLFGVQFQYRNRIAMEFNHLYHWHPLMPDSFKVGSQEYSYEQFLFNTSMLVDYGVEALVDAFSRQIAGRIGGGRNMDHHILHVAVDVIRESREMRLQPFNEYRKRFGMKPYTSFQELVGEKEMAAELEELYGDIDALEFYPGLLLEKCHPNSIFGESMIEIGAPFSLKGLLGNPICSPEYWKPSTFGGEVGFNIVKTATLKKLVCLNTKTCPYVSFRVPDASQDDGPAVERPSTEL
B1 gave a Km of 1.9 ± 0.2 µM.
